Experimental findings from patent publication US20140350088 are described below.

For data set [1], the target named is biotinylated human glucagon (Homo sapiens) (UniProt P01275). Put plainly: SPR. The note with it: 37 C, HBS-EP pH 7.4.
Data set [2] deals with T1, human alpha-CGRP (Homo sapiens) (UniProt P06881).
T1 sequence: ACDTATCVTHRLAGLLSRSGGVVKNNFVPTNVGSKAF
The experiment in a line: SPR. The note with it: L-RNA, 37 C.

The target in data set [3] is biotinylated human glucagon (Homo sapiens) (UniProt P01275). The experiment in a line: competition. The note with it: L-DNA; competitive pull-down, 37 C, 1 mM Mg, 1 mM Ca.
Another data set deals with T2, human C5a (Homo sapiens) (UniProt P01031).
T2 sequence: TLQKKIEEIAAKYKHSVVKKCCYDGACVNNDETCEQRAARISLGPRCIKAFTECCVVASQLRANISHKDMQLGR
The experiment in a line: SPR. To be noted: L-RNA; 37 C, HBS-EP pH 7.4.

Chain of biotinylated human glucagon (Homo sapiens) (P01275 53-81): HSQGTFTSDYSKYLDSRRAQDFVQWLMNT

“ACTCGAGAGGAAAGGTTGGTAAAGGTTCGGTTGGATTCACTCGAGT [259-H6-002]” had a dissociation constant Kd in data set [1] (L-DNA) of 10.9 nM.

As for “CAGACGUGUGUGGGUAGAUGCACCUGCGAUUCGCUAAAAAGUGCCACACGUCUG [NOX-G11stabi2]”, the dissociation constant Kd in data set [1] (L-RNA) was found to be 67.1 nM.

With “CCGUGCUGUCGGAGACUACUCGUCGAGUAGAAAUAGGUCCCCUCCCACGG [226-F2-001-D41/D44]”, the Kd in data set [2] (dC at 41 and 44, 13-fold improvement over parent) is 0.2 nM.

In data set [2] (dC at 41, HBS-EP pH 7.4), “CCGUGCUGUCGGAGACUACUCGUCGAGUAGAAAUAGGUCCCCUCCCACGG [226-F2-001-D41]” yielded a Kd of 0.55 nM.

In data set [2] (dC at 44, HBS-EP pH 7.4), “CCGUGCUGUCGGAGACUACUCGUCGAGUAGAAAUAGGUCCCCUCCCACGG [226-F2-001-D44]” yielded a dissociation constant Kd of 0.52 nM.

On to “CCGUGCUGUCGGAGACUACUCGUCGAGUAGAAAUAGGUCCCCUCCCACGG [226-F2-001]”, for which, in data set [2] (HBS-EP pH 7.4), the Kd worked out at 2.6 nM.

With “GCAGTGGGGAAATGGGAGGGCTAGGTGGAAGGAATCTGAGCTACTGC [257-E1-001]”, the dissociation constant Kd in data set [3] worked out at 186 nM.

As for “GCCUGAUGUGGUGGUGAAGGGUUGUUGGGUGUCGACGCACAGGC [NOX-D19001]”, in the data set with human C5a (Homo sapiens), the Kd was determined as 1.4 nM.

By Kd is commonly meant the constant that tells how readily two partners part at equilibrium.
